15 molecules from patent publication US20130142788A1 (published 2013) can be followed below.

Experiment [1] concerns the target T1, recombinant mature dimeric myostatin (human and mouse (mature sequences 100% …, UniProt O08689 268-376)).
T1 construct: also called GDF-8; mature myostatin
T1 sequence: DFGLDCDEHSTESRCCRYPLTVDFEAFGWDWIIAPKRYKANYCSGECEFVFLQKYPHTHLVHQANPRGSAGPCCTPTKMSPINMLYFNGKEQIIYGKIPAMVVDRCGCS
The experiment can be described thus: ActRIIb neutralisation ELISA: inhibition of 2 nM biotinylated myostatin binding to coated ActRIIb. The method, then:
Recombinant soluble ActRIIb (R&D Systems 339-RBB) was coated in wells of an ELISA plate at 1 μg/ml in carbonate buffer overnight at 4° C. Plates were blocked with PBS containing 0.1% tween 20 and 0.1% BSA and washed following standard ELISA protocols. In parallel, 2 nM biotinylated myostatin (in-house reagent, described above) was pre-incubated with a dilution series of the antibodies of Tables 21 and 22 for 30 minutes at 37° C. The biotinylated myostatin:antibody reactions were then added (50 μl/well) to the ActRIIb coated plate for 1 hour at 37° C. Standard wash procedures were followed prior to addition of 50 μl per well of a 1:200 diluted streptavidin-HRP conjugate (R&D Systems. #890803) followed by a further 37° C. incubation for 1 hour. Plates were again washed and assayed at absorbance 490 nm following substrate (R&D Systems, #DY999) and acid stop solution treatment.
In general terms: In an ELISA, binding on a coated surface is turned into a signal by an enzyme label.

In experiment [2] the target is T1, recombinant mature dimeric myostatin. The experiment can be described thus: cell-based or functional assay.

B1: H3L4 (antibody, IgG1, V domains shown)
VH: QVQLVQSGAEVKKPGASVKVSCKASGYSFTGYFMHWVRQAPGQGLEWIGNIYPYNGVSNYNQRFKARATLTTDTSTSTAYMELRSLRSDDTAVYYCARRYYYGTGPADWYYDVWGQGTLVTVSS
VL: DIQMTQSPSSLSASVGDRVTITCKASQDINSYLSWFQQKPGKAPKSLIYRANRLVDGVPSKFSGSGSGQDYTLTISSLQPEDFATYYCLQSDEFPLTFGQGTKLEIKR
notes: Humanised IgG1/kappa
With B1, the IC50 in experiment [1] was found to be 1.31 nM.

B2: H8L4 (antibody, IgG1, V domains shown)
VH: QVQLVQSGAEVKKPGASVKVSCKASGYSFTGYFMHWVRQAPGQGLEWIGNIYPYNSVSNYNQRFKARATLTVDKSTSTAYMELRSLRSDDTAVYYCARRYYYGTGPADWYYDVWGQGTLVTVSS
VL: DIQMTQSPSSLSASVGDRVTITCKASQDINSYLSWFQQKPGKAPKSLIYRANRLVDGVPSKFSGSGSGQDYTLTISSLQPEDFATYYCLQSDEFPLTFGQGTKLEIKR
notes: Humanised IgG1/kappa
Turning to B2, the IC50 in experiment [1] was 0.079 nM.

B3: H3L5 (antibody, IgG1, V domains shown)
VH: QVQLVQSGAEVKKPGASVKVSCKASGYSFTGYFMHWVRQAPGQGLEWIGNIYPYNGVSNYNQRFKARATLTTDTSTSTAYMELRSLRSDDTAVYYCARRYYYGTGPADWYYDVWGQGTLVTVSS
VL: DIQMTQSPSSLSASVGDRVTITCKASQDINSYLSWFQQKPGKAPKTLIYRANRLVDGVPSKFSGSGSGTDYTLTISSLQPEDFATYYCLQSDEFPLTFGQGTKLEIKR
notes: Humanised IgG1/kappa
Take B3: the IC50 in experiment [1] amounted to 1.08 nM.

B4: H9L6 (antibody, IgG1, V domains shown)
VH: QVQLVQSGAEVKKPGASVKISCKASGYSFTGYFMHWVRQAPGQGLEWIGNIYPYNSVSNYNQRFKAKATLTVDKSTSTAYMELRSLRSDDTAVYYCARRYYYGTGPADWYYDVWGQGTLVTVSS
VL: DIQMTQSPSSLSASVGDRVTITCKASQDINSYLSWFQQKPGKAPKTLIYRANRLVDGVPSKFSGSGSGQDYTLTISSLQPEDFATYYCLQSDEFPLTFGQGTKLEIKR
notes: Humanised IgG1/kappa
For B4, the IC50 in experiment [1] was 0.129 nM.

B5: H5L4 (antibody, IgG1, V domains shown)
VH: QVQLVQSGAEVKKPGASVKVSCKASGYSFTGYFMHWVRQAPGQGLEWIGNIYPYNGVSNYNQRFKARATLTVDKSTSTAYMELRSLRSDDTAVYYCARRYYYGTGPADWYYDVWGQGTLVTVSS
VL: DIQMTQSPSSLSASVGDRVTITCKASQDINSYLSWFQQKPGKAPKSLIYRANRLVDGVPSKFSGSGSGQDYTLTISSLQPEDFATYYCLQSDEFPLTFGQGTKLEIKR
notes: Humanised IgG1/kappa
Take B5: the IC50 in experiment [1] was 0.211 nM.

B6: H3L6 (antibody, IgG1, V domains shown)
VH: QVQLVQSGAEVKKPGASVKVSCKASGYSFTGYFMHWVRQAPGQGLEWIGNIYPYNGVSNYNQRFKARATLTTDTSTSTAYMELRSLRSDDTAVYYCARRYYYGTGPADWYYDVWGQGTLVTVSS
VL: DIQMTQSPSSLSASVGDRVTITCKASQDINSYLSWFQQKPGKAPKTLIYRANRLVDGVPSKFSGSGSGQDYTLTISSLQPEDFATYYCLQSDEFPLTFGQGTKLEIKR
notes: Humanised IgG1/kappa
Take B6: in experiment [1], the IC50 came out at 3.04 nM.

B7: H9L4 (antibody, IgG1, V domains shown)
VH: QVQLVQSGAEVKKPGASVKISCKASGYSFTGYFMHWVRQAPGQGLEWIGNIYPYNSVSNYNQRFKAKATLTVDKSTSTAYMELRSLRSDDTAVYYCARRYYYGTGPADWYYDVWGQGTLVTVSS
VL: DIQMTQSPSSLSASVGDRVTITCKASQDINSYLSWFQQKPGKAPKSLIYRANRLVDGVPSKFSGSGSGQDYTLTISSLQPEDFATYYCLQSDEFPLTFGQGTKLEIKR
notes: Humanised IgG1/kappa
Consider B7, for which the IC50 in experiment [1] worked out at 0.141 nM.

B8: H6L5 (antibody, IgG1, V domains shown)
VH: QVQLVQSGAEVKKPGASVKISCKASGYSFTGYFMHWVRQAPGQGLEWIGNIYPYNGVSNYNQRFKAKATLTVDKSTSTAYMELRSLRSDDTAVYYCARRYYYGTGPADWYYDVWGQGTLVTVSS
VL: DIQMTQSPSSLSASVGDRVTITCKASQDINSYLSWFQQKPGKAPKTLIYRANRLVDGVPSKFSGSGSGTDYTLTISSLQPEDFATYYCLQSDEFPLTFGQGTKLEIKR
For B8, the “IC50, myostatin responsive reporter gene neutralisation assay (A204)” value in experiment [2] was 6 nM.

B9: H7L6 (antibody, IgG1, V domains shown)
VH: QVQLVQSGAEVKKPGASVKVSCKASGYSFTGYFMHWVRQAPGQGLEWMGNIYPYNSVSNYNQRFKARVTMTVDKSTSTAYMELRSLRSDDTAVYYCARRYYYGTGPADWYYDVWGQGTLVTVSS
VL: DIQMTQSPSSLSASVGDRVTITCKASQDINSYLSWFQQKPGKAPKTLIYRANRLVDGVPSKFSGSGSGQDYTLTISSLQPEDFATYYCLQSDEFPLTFGQGTKLEIKR
notes: Humanised IgG1/kappa
Take B9: the 50% inhibitory concentration (IC50) in experiment [1] came out at 0.031 nM.

B10: H6L4 (antibody, IgG1, V domains shown)
VH: QVQLVQSGAEVKKPGASVKISCKASGYSFTGYFMHWVRQAPGQGLEWIGNIYPYNGVSNYNQRFKAKATLTVDKSTSTAYMELRSLRSDDTAVYYCARRYYYGTGPADWYYDVWGQGTLVTVSS
VL: DIQMTQSPSSLSASVGDRVTITCKASQDINSYLSWFQQKPGKAPKSLIYRANRLVDGVPSKFSGSGSGQDYTLTISSLQPEDFATYYCLQSDEFPLTFGQGTKLEIKR
notes: Humanised IgG1/kappa
As for B10, the IC50 in experiment [1] came out at 0.225 nM.

B11: H7L4 (antibody, IgG1, V domains shown)
VH: QVQLVQSGAEVKKPGASVKVSCKASGYSFTGYFMHWVRQAPGQGLEWMGNIYPYNSVSNYNQRFKARVTMTVDKSTSTAYMELRSLRSDDTAVYYCARRYYYGTGPADWYYDVWGQGTLVTVSS
VL: DIQMTQSPSSLSASVGDRVTITCKASQDINSYLSWFQQKPGKAPKSLIYRANRLVDGVPSKFSGSGSGQDYTLTISSLQPEDFATYYCLQSDEFPLTFGQGTKLEIKR
notes: Humanised IgG1/kappa
On to B11, for which the IC50 in experiment [1] was 0.038 nM.

B12: H6L6 (antibody, IgG1, V domains shown)
VH: QVQLVQSGAEVKKPGASVKISCKASGYSFTGYFMHWVRQAPGQGLEWIGNIYPYNGVSNYNQRFKAKATLTVDKSTSTAYMELRSLRSDDTAVYYCARRYYYGTGPADWYYDVWGQGTLVTVSS
VL: DIQMTQSPSSLSASVGDRVTITCKASQDINSYLSWFQQKPGKAPKTLIYRANRLVDGVPSKFSGSGSGQDYTLTISSLQPEDFATYYCLQSDEFPLTFGQGTKLEIKR
notes: Humanised IgG1/kappa
As to B12, the IC50 in experiment [1] came to 0.32 nM.

B13: H8L6 (antibody, IgG1, V domains shown)
VH: QVQLVQSGAEVKKPGASVKVSCKASGYSFTGYFMHWVRQAPGQGLEWIGNIYPYNSVSNYNQRFKARATLTVDKSTSTAYMELRSLRSDDTAVYYCARRYYYGTGPADWYYDVWGQGTLVTVSS
VL: DIQMTQSPSSLSASVGDRVTITCKASQDINSYLSWFQQKPGKAPKTLIYRANRLVDGVPSKFSGSGSGQDYTLTISSLQPEDFATYYCLQSDEFPLTFGQGTKLEIKR
notes: Humanised IgG1/kappa
With B13, the IC50 in experiment [1] worked out at 0.101 nM.

B14: H4L4 (antibody, IgG1, V domains shown)
VH: QVQLVQSGAEVKKPGASVKVSCKASGYSFTGYFMHWVRQAPGQGLEWMGNIYPYNGVSNYNQRFKARVTMTVDKSTSTAYMELRSLRSDDTAVYYCARRYYYGTGPADWYYDVWGQGTLVTVSS
VL: DIQMTQSPSSLSASVGDRVTITCKASQDINSYLSWFQQKPGKAPKSLIYRANRLVDGVPSKFSGSGSGQDYTLTISSLQPEDFATYYCLQSDEFPLTFGQGTKLEIKR
notes: Humanised IgG1/kappa
Take B14: the “IC50, myostatin responsive reporter gene neutralisation assay (A204)” value in experiment [2] was 7.9 nM. Further, in experiment [1], the IC50 worked out at 0.395 nM.

B15: H5L6 (antibody, IgG1, V domains shown)
VH: QVQLVQSGAEVKKPGASVKVSCKASGYSFTGYFMHWVRQAPGQGLEWIGNIYPYNGVSNYNQRFKARATLTVDKSTSTAYMELRSLRSDDTAVYYCARRYYYGTGPADWYYDVWGQGTLVTVSS
VL: DIQMTQSPSSLSASVGDRVTITCKASQDINSYLSWFQQKPGKAPKTLIYRANRLVDGVPSKFSGSGSGQDYTLTISSLQPEDFATYYCLQSDEFPLTFGQGTKLEIKR
notes: Humanised IgG1/kappa
For B15, the IC50 in experiment [1] is 0.166 nM.

What is called IC50 is the concentration at which inhibition is half-maximal.
